# Assay results taken from article PMC4169075.
# Target: GABAA receptor β2 subunit, FLAG-tagged (β2^FLAG) (human) (UniProt P47870)
# Experiment: co-IP
row,amount associated with β2^FLAG relative to wildtype γ2L^HA,Substance
1,0.94,"GABAA receptor γ2L(N79S) subunit, HA-tagged (γ2L(N79S)^HA)"
2,0.71,"GABAA receptor γ2L(P83S) subunit, HA-tagged (γ2L(P83S)^HA)"
3,0.47,"GABAA receptor γ2L(R82Q) subunit, HA-tagged (γ2L(R82Q)^HA)"
